Kd data for ten molecules are collected here from article PMC10801562 (Antibodies, 2024).

Substitutions are numbered along the chain they refer to.

What all share (conditions): both partners purified
For assay [1], the target named is T1, recombinant human CD3ε-CD3δ heterodimeric protein (CD3εδ) (Homo sapiens).
T1 construct: human CD3ε of the recombinant CD3εδ heterodimer; human CD3δ of the recombinant CD3εδ heterodimer; source: in-house prepared
T1 chain 1: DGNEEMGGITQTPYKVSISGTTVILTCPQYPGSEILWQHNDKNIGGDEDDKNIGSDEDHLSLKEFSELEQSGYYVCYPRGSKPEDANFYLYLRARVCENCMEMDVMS
T1 chain 2: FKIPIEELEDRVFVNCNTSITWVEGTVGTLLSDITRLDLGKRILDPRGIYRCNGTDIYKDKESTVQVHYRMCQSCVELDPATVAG
Kind of assay: SPR; Biacore T200, 37 °C, pH 7.4, PB-P+; antibody captured (630 RU) by anti-mouse IgG (Fc) antibody on a CM4 chip; human CD3εδ as analyte, 18.8-19,200 nmol/L (mHIT3a, mOKT3) or 75-76,800 nmol/L (m12F6); steady state model.

For assay [2], the target named is T2, recombinant human HER2 (Sino Biological, 10004-H08H) (Homo sapiens, UniProt P04626).
T2 construct: human epidermal growth factor receptor 2 (HER2), recombinant; also called human epidermal growth factor receptor 2; source: bought: Sino Biological
Kind of assay: SPR; Biacore T200, 37 °C, pH 7.4, PB-P+ (0.05 mol/L Na-phosphate, 0.15 mol/L NaCl, 0.05% P-20); antibody captured (200 RU) by anti-mouse IgG (Fc) antibody on a CM4 chip; human HER2 as analyte, 6.3-100 nmol/L; 1:1 binding model. (In SPR one partner is held on a chip, and binding of the other changes the refractive index at the surface.)

In assay [3] the target is T1, recombinant human CD3ε-CD3δ …. The experiment in a line: SPR; Biacore T200, 37 °C, pH 7.4, PB-P+; antibody captured (630 RU) by anti-mouse IgG (Fc) antibody on a CM4 chip; human CD3εδ as analyte, 1.2-4800 nmol/L; 1:1 binding model (mUCHT1, mSP34).

B1: m12F6 mIgG1 V1+C19, homodimeric antibody with FAST-Ig V1+C19 mutations (antibody, V domains shown)
VH: QVQLQQSGAELARPGASVKMSCKASGYTFTSYTMHWVKERPGQGLEWIGYINPSSGYTKYNQKFKDKATLTADKSSSTAYMQLSSLTSEDSAVYYCARWQDYDVYFDYWGQGTTLTVSS
VL: QIVLSQSPAILSASPGEKVTMTCRASSSVSYMHWYQKKPGSSPKPWIYATSNLASGVPARFSGSGSGTSYSLTISRVEAEDAATYYCQQWSSNPPTFGGGTKLETK
notes: VH of m12F6; mouse IgG1 (mIgG1) heavy chain constant region; numbers count on: Eu numbering; VL of m12F6; mouse kappa light chain constant region (CL); numbers count on: Kabat numbering; Whole IgG of one HC and one LC; also called anti-CD3; H2L2H2L2; source: Expi293F, transiently expressed, purified (Ab-Capcher MAG2 or MonoSpin ProG); copies: 2 + 2
Take B1: in assay [1], the dissociation constant Kd – broadly, the free concentration of one partner at which half of the binding sites on the other are occupied at equilibrium, for simple one-to-one binding – was found to be 16100 nM.

B2: m12F6 mIgG2a V1+C19, homodimeric antibody with FAST-Ig V1+C19 mutations (antibody, V domains shown)
VH: B1 VH
VL: B1 VL
notes: VH of m12F6; mouse IgG2a (mIgG2a) heavy chain constant region; numbers count on: Eu numbering; VL of m12F6; mouse kappa light chain constant region (CL); numbers count on: Kabat numbering; Whole IgG of one HC and one LC; also called anti-CD3; H2L2H2L2; source: Expi293F, transiently expressed, purified (Ab-Capcher MAG2, MonoSpin ProA or MonoSpin ProG); copies: 2 + 2
As for B2, in assay [1], the dissociation constant (Kd) is 16400 nM.

B3: m12F6 mIgG2a, homodimeric antibody without FAST-Ig mutations (antibody, V domains shown)
VH: B1 VH with E39Q
VL: B1 VL with K37Q
notes: VH of the original mouse antibody m12F6; mouse IgG2a (mIgG2a) heavy chain constant region; numbers count on: Eu numbering; VL of the original mouse antibody m12F6; mouse kappa light chain constant region (CL); Whole IgG of one HC and one LC; also called anti-CD3; H2L2H2L2; source: Expi293F, transiently expressed, purified (Ab-Capcher MAG2, MonoSpin ProA or MonoSpin ProG); copies: 2 + 2
B3: the Kd in assay [1] was 16700 nM.

B4: m12F6 mIgG1, homodimeric antibody without FAST-Ig mutations (antibody, V domains shown)
VH: B1 VH with E39Q
VL: B1 VL with K37Q
notes: VH of the original mouse antibody m12F6; mouse IgG1 (mIgG1) heavy chain constant region; numbers count on: Eu numbering; VL of the original mouse antibody m12F6; mouse kappa light chain constant region (CL); Whole IgG of one HC and one LC; also called anti-CD3; H2L2H2L2; source: Expi293F, transiently expressed, purified (Ab-Capcher MAG2 or MonoSpin ProG); copies: 2 + 2
Turning to B4, in assay [1], the Kd is 16800 nM.

B5: m2C4 mIgG2a, homodimeric antibody without FAST-Ig mutations (antibody, V domains shown)
VH: EVQLQQSGPELVKPGTSVKISCKASGFTFTDYTMDWVKQSHGKSLEWIGDVNPNSGGSIYNQRFKGKASLTVDRSSRIVYMELRSLTFEDTAVYYCARNLGPSFYFDYWGQGTTLTVSS
VL: DTVMTQSHKIMSTSVGDRVSITCKASQDVSIGVAWYQQRPGQSPKLLIYSASYRYTGVPDRFTGSGSGTDFTFTISSVQAEDLAVYYCQQYYIYPYTFGGGTKLEIK
notes: VH of the original mouse antibody m2C4; mouse IgG2a (mIgG2a) heavy chain constant region; numbers count on: Eu numbering; VL of the original mouse antibody m2C4; mouse kappa light chain constant region (CL); Whole IgG of one HC and one LC; also called anti-HER2; H1L1H1L1; source: Expi293F, transiently expressed, purified (Ab-Capcher MAG2, MonoSpin ProA or MonoSpin ProG); copies: 2 + 2
For the molecule B5, the Kd in assay [2] was determined as 1.08 nM.

B6: m2C4 mIgG1 V1+C19, homodimeric antibody with FAST-Ig V1+C19 mutations (antibody, V domains shown)
VH: B5 VH with Q39K
VL: B5 VL with Q38E
notes: VH of m2C4; mouse IgG1 (mIgG1) heavy chain constant region; K147 kept; numbers count on: Eu numbering; VL of m2C4; mouse kappa light chain constant region (CL); numbers count on: Kabat numbering; Whole IgG of one HC and one LC; also called anti-HER2; H1L1H1L1; source: Expi293F, transiently expressed, purified (Ab-Capcher MAG2 or MonoSpin ProG); copies: 2 + 2
Turning to B6, the Kd in assay [2] is 0.784 nM.

B7: m2C4 mIgG2a V1+C19, homodimeric antibody with FAST-Ig V1+C19 mutations (antibody, V domains shown)
VH: B5 VH with Q39K
VL: B5 VL with Q38E
notes: VH of m2C4; mouse IgG2a (mIgG2a) heavy chain constant region; K147 kept; numbers count on: Eu numbering; VL of m2C4; mouse kappa light chain constant region (CL); numbers count on: Kabat numbering; Whole IgG of one HC and one LC; also called anti-HER2; H1L1H1L1; source: Expi293F, transiently expressed, purified (Ab-Capcher MAG2, MonoSpin ProA or MonoSpin ProG); copies: 2 + 2
On to B7, for which the Kd in assay [2] came out at 1.36 nM.

B8: m2C4 mIgG1, homodimeric antibody without FAST-Ig mutations (antibody, V domains shown)
VH: B5 VH
VL: B5 VL
notes: VH of the original mouse antibody m2C4; mouse IgG1 (mIgG1) heavy chain constant region; numbers count on: Eu numbering; VL of the original mouse antibody m2C4; mouse kappa light chain constant region (CL); Whole IgG of one HC and one LC; also called anti-HER2; H1L1H1L1; source: Expi293F, transiently expressed, purified (Ab-Capcher MAG2 or MonoSpin ProG); copies: 2 + 2
Turning to B8, in assay [2], the Kd worked out at 0.759 nM.

B9: mUCHT1 mIgG1 V1+C19, homodimeric antibody with FAST-Ig V1+C19 mutations (antibody, V domains shown)
VH: EVQLQQSGPELVKPGASMKISCKASGYSFTGYTMNWVKESHGKNLEWMGLINPYKGVSTYNQKFKDKATLTVDKSSSTAYMELLSLTSEDSAVYYCARSGYYGDSDWYFDVWGQGTTLTVFS
VL: DIQMTQTTSSLSASLGDRVTISCRASQDIRNYLNWYQKKPDGTVKLLIYYTSRLHSGVPSKFSGSGSGTDYSLTISNLEQEDIATYFCQQGNTLPWTFAGGTKLEIK
notes: VH of mUCHT1; mouse IgG1 (mIgG1) heavy chain constant region; numbers count on: Eu numbering; VL of mUCHT1; mouse kappa light chain constant region (CL); numbers count on: Kabat numbering; Whole IgG of one HC and one LC; also called anti-CD3; H2L2H2L2; source: Expi293F, transiently expressed, purified (Ab-Capcher MAG2 or MonoSpin ProG); copies: 2 + 2
Turning to B9, in assay [3], the Kd was 1.32 nM.

B10: m4D5 mIgG1, homodimeric antibody without FAST-Ig mutations (antibody, V domains shown)
VH: QVQLQQSGPELVKPGASLKLSCTASGFNIKDTYIHWVKQRPEQGLEWIGRIYPTNGYTRYDPKFQDKATITADTSSNTAYLQVSRLTSEDTAVYYCSRWGGDGFYAMDYWGQGASVTVSS
VL: DIVMTQSHKFMSTSVGDRVSITCKASQDVNTAVAWYQQKPGHSPKLLIYSASFRYTGVPDRFTGSRSGTDFTFTISSVQAEDLAVYYCQQHYTTPPTFGGGTKVEIK
notes: VH of the original mouse antibody m4D5; mouse IgG1 (mIgG1) heavy chain constant region; numbers count on: Eu numbering; VL of m4D5; mouse kappa light chain constant region (CL); Whole IgG of one HC and one LC; also called anti-HER2; H1L1H1L1; source: Expi293F, transiently expressed, purified (Ab-Capcher MAG2 or MonoSpin ProG); copies: 2 + 2
For the molecule B10, the Kd in assay [2] turned out to be 1.03 nM.
